Results reported in patent US20230416388A1 (Bristol-Myers Squibb, published 2023).

T1: human GITR (on activated human T cells) (human, UniProt Q9Y5U5 26-241)
T1 construct: also called glucocorticoid-inducible TNF receptor; TNFRSF18
T1 sequence: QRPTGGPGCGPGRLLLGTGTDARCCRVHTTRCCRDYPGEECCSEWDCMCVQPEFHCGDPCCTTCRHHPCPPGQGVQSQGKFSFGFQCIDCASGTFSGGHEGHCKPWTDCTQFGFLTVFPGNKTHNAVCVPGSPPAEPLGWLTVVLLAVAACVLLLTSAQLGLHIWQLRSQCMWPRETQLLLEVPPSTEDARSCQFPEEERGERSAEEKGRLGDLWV

B1: 28F3.IgG1 (antibody, V domains shown)
VH: QVQLVESGGGVVQPGRSLRLSCAASGFTFSSYGMHWVRQAPGKGLEWVAVIWYEGSNKYYADSVKGRFTISRDNSKNTLYLQMNSLRAEDTAVYYCARGGSMVRGDYYYGMDVWGQGTTVTVSS
VL: AIQLTQSPSSLSASVGDRVTITCRASQGISSALAWYQQKPGKAPKLLIYDASSLESGVPSRFSGSGSGTDFTLTISSLQPEDFATYYCQQFNSYPYTFGQGTKLEIKR
notes: Fully human IgG1 agonist antibody to GITR; also called GITR Ab; anti-GITR agonist Ab 28F3.IgG1

Assays:
[1] = biological target: mouse GITR (on activated mouse T cells) (mouse) (UniProt O35714); test: in vitro binding on activated mouse CD8+ T cells
[2] = biological target: mouse GITR (on activated mouse T cells) (mouse) (UniProt O35714); test: in vitro binding on activated mouse CD4+ T cells
[3] = biological target: T1, human GITR (on activated human T cells); test: in vitro binding on activated human CD8+ T cells
[4] = biological target: T1, human GITR (on activated human T cells); test: in vitro binding on activated human CD4+ T cells

Chain of mouse GITR (on activated mouse T cells) (mouse) (O35714 20-228): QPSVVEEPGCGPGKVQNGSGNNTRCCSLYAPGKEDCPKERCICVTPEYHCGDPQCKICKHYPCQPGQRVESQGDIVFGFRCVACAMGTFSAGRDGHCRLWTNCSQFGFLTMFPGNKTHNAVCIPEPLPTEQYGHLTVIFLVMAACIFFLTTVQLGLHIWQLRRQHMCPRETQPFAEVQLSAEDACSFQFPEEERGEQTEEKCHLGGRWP

Molecule	EC50 [1] [pM]	EC50 [2] [pM]	EC50 [3] [pM]	EC50 [4] [pM]
DTA1-mIgG2a (antibody)	170	140		
DTA1-mIgG2b (antibody)	330	330		
B1			440	370
